# Biological target: human neonatal Fc-receptor (FcRn) (human) (UniProt P55899)
# Assay: FcRn affinity chromatography
# Sequence of human neonatal Fc-receptor (FcRn) (human) (P55899 24-297 limits assumed, chain 1 of 2): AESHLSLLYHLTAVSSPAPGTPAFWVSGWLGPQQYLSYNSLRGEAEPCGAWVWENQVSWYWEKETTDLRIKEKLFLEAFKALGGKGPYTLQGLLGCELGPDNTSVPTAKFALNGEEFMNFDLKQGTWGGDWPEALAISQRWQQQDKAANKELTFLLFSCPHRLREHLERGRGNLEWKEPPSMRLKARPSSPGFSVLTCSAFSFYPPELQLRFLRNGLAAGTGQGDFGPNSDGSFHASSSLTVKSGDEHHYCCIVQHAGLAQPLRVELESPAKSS
# Sequence of human neonatal Fc-receptor (FcRn) (human) (P61769 21-119 limits assumed, chain 2 of 2, further chain): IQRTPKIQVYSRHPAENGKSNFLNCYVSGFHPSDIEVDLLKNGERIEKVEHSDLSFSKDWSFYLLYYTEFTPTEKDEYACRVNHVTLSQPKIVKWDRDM
Substance,FcRn-affinity column retention time [min],RT [min] (retention time on the FcRn affinity column)
IgG1 Fc-region with L234A/L235A/P329G and Y436A (symmetric),41.3,
"bispecific antibody (knobs-into-holes), first chain with I253A/H310A/H435A and second chain with H310A",,0
"bispecific antibody (knobs-into-holes), first chain with I253A/H310A/H435A and second chain with H435A",,0
"bispecific antibody (knobs-into-holes), first chain with I253A/H310A/H435A and second chain with I253A/H310A/H435A",,0

# Biological target: human neonatal Fc-receptor (FcRn) (human) (UniProt P55899)
# Assay: FcRn affinity chromatography, symmetrically modified anti-HER2 antibody
row,Substance,retention time [min]
1,"anti-HER2 antibody, E258H (symmetric)",45.6
2,"anti-HER2 antibody, K288E (symmetric)",45.2
3,"anti-HER2 antibody, K290H (symmetric)",46.2
4,"anti-HER2 antibody, L309H (symmetric)",45.5
5,"anti-HER2 antibody, N434H (symmetric)",52
6,"anti-HER2 antibody, R255D (symmetric)",41.4
